The target of test [1] is tissue factor (TF) (human) (UniProt P13726). The test is described as follows: SPR (ProteOn), Fab captured on anti-penta His, TF analyte, 1:1 fit; estimated from Fab differing only in L chain tag.
Test [2] has as its target tissue factor (TF) antigen (human (from the antibody's name 'anti-human tissue factor'; not stated for the antigen lot in the assay)) (UniProt P13726). The test is described as follows: SPR (ProteOn XPR36), Fab captured on anti-penta His, TF analyte; against wild-type D3H44 Fab; batch C by the KD cell's +.
For test [3] the target is unchanged. Nature of the test: SPR (ProteOn XPR36): Fab captured via His tag on anti-penta His surface, TF injected, 1:1 fit; batch C (+).
Test [4] has as its target D3H44 light chain L135W_S176L (Kabat), N-terminal HA or FLAG tag. The test is described as follows: LCCA co-expression, competing light chain m34, L1:L2 DNA 1:3 normalized to 1:1, SPR tag read-out.
The target of test [5] is D3H44 light chain F116A_L135V (Kabat), N-terminal HA or FLAG tag. Nature of the test: LCCA co-expression, competing light chain m35, L1:L2 DNA 1:9 normalized to 1:1, SPR tag read-out.
Test [6] concerns the target D3H44 light chain L135W_S176L (Kabat), N-terminal HA or FLAG tag. The test is described as follows: LCCA co-expression, competing light chain m34, L1:L2 DNA 1:9 normalized to 1:1, SPR tag read-out.
In test [7] the target is D3H44 light chain F116A_L135V (Kabat), N-terminal HA or FLAG tag. The test is described as follows: LCCA co-expression, competing light chain m35, L1:L2 DNA 1:3 normalized to 1:1, SPR tag read-out.
Test [8] has the same target. Nature of the test: LCCA co-expression, competing light chain m33, L1:L2 DNA 1:3 normalized to 1:1, SPR tag read-out.
Test [9] concerns the target D3H44 light chain S131T_L135F_S176F_T178F (Kabat), N-terminal HA or FLAG tag. Nature of the test: LCCA co-expression, competing light chain m34, L1:L2 DNA 1:3 normalized to 1:1, SPR tag read-out.
The target in test [10] is D3H44 light chain F116A_L135V (Kabat), N-terminal HA or FLAG tag. The test is described as follows: LCCA co-expression, competing light chain m33, L1:L2 DNA 1:9 normalized to 1:1, SPR tag read-out.
In test [11] the target is D3H44 light chain S131T_L135F_S176F_T178F (Kabat), N-terminal HA or FLAG tag. The test is described as follows: LCCA co-expression, competing light chain m34, L1:L2 DNA 1:9 normalized to 1:1, SPR tag read-out.
Test [12] concerns the target D3H44 light chain Q124E_Q160E_T180E (Kabat), N-terminal HA or FLAG tag. Nature of the test: LCCA co-expression, competing light chain m38, L1:L2 DNA 1:3 normalized to 1:1, SPR tag read-out.
Test [13] shares this target. Nature of the test: LCCA co-expression, competing light chain m38, L1:L2 DNA 1:9 normalized to 1:1, SPR tag read-out.
Test [14] addresses D3H44 light chain Q124R_Q160K_T178R (Kabat), N-terminal HA or FLAG tag. Nature of the test: LCCA co-expression, competing light chain m39, L1:L2 DNA 1:9 normalized to 1:1, SPR tag read-out.
For test [15] the target is unchanged. The test is described as follows: LCCA co-expression, competing light chain m39, L1:L2 DNA 1:3 normalized to 1:1, SPR tag read-out.
For test [16], the target named is tissue factor (TF) antigen (UniProt P13726). The test is described as follows: SPR (ProteOn XPR36), Fab captured on anti-penta-His surface, TF as analyte, 1:1 fit; estimated value from a Fab differing only in the L chain tag (HA or FLAG).
Test [17] shares this target. The test is described as follows: SPR (ProteOn XPR36), Fab captured on anti-penta-His surface, TF as analyte; reference wild-type D3H44 Fab; estimated value from a Fab differing only in the L chain tag.
The target is the same in test [18]. The test is described as follows: SPR, ProteOn XPR36; His-tagged Fab captured on anti-penta-His, TF injected; 1:1 fit.
Test [19] has the same target. Nature of the test: SPR as for KD; reference: wild-type D3H44 Fab.
Test [20] has the same target. The test is described as follows: SPR, ProteOn XPR36; His-tagged Fab captured on anti-penta-His, TF injected; 1:1 fit; estimated (*) from the Fab that differs only in the L chain tag.
Test [21] shares this target. Nature of the test: SPR as for KD; reference: wild-type D3H44 Fab; estimated (*) from the Fab that differs only in the L chain tag.
Test [22] shares this target. The test is described as follows: SPR (ProteOn XPR36), Fab captured on anti-penta-His surface, TF injected as analyte, 1:1 fit; the row's other values are marked * (estimated); reference wild-type D3H44 Fab.
For test [23] the target is unchanged. Nature of the test: SPR (ProteOn XPR36), Fab captured on anti-penta-His surface, TF injected as analyte, 1:1 fit; marked * (estimated from a Fab that differs only in the L chain tag); reference wild-type D3H44 Fab.
The target is the same in test [24]. Nature of the test: SPR (ProteOn XPR36), Fab captured on anti-penta-His surface, TF injected as analyte, 1:1 fit; marked * (estimated from a Fab that differs only in the L chain tag).
The target is the same in test [25]. The test is described as follows: SPR (ProteOn XPR36), Fab captured on anti-penta-His surface, TF as analyte, 1:1 fit; batch C (stored about 2 months at 4 C).
Test [26] has the same target. Nature of the test: SPR (ProteOn XPR36), Fab captured on anti-penta-His surface, TF as analyte; reference wild-type D3H44 Fab; batch C.
Test [27] deals with D3H44 light chain Q124E_T178E (Kabat), N-terminal HA or FLAG tag. Nature of the test: LCCA co-expression, competing light chain m38, L1:L2 DNA 1:3 normalized to 1:1, SPR tag read-out.
In test [28] the target is D3H44 light chain Q124E_T180E (Kabat), N-terminal HA or FLAG tag. Described as above.
Test [29] addresses D3H44 light chain Q124R_Q160K_T178R (Kabat), N-terminal HA or FLAG tag. Nature of the test: LCCA co-expression, competing light chain m40, L1:L2 DNA 1:3 normalized to 1:1, SPR tag read-out.
For test [30] the target is unchanged. The test is described as follows: LCCA co-expression, competing light chain m37, L1:L2 DNA 1:3 normalized to 1:1, SPR tag read-out.
For test [31], the target named is D3H44 light chain Q124E_T180E (Kabat), N-terminal HA or FLAG tag. Nature of the test: LCCA co-expression, competing light chain m36, L1:L2 DNA 1:3 normalized to 1:1, SPR tag read-out.
Test [32] has as its target D3H44 light chain S131K (Kabat), N-terminal HA or FLAG tag. Nature of the test: LCCA co-expression, competing light chain m37, L1:L2 DNA 1:9 normalized to 1:1, SPR tag read-out.
Test [33] has as its target D3H44 light chain Q124E_T180E (Kabat), N-terminal HA or FLAG tag. Nature of the test: LCCA co-expression, competing light chain m36, L1:L2 DNA 1:9 normalized to 1:1, SPR tag read-out.
The target of test [34] is D3H44 light chain S131K (Kabat), N-terminal HA or FLAG tag. The test is described as follows: LCCA co-expression, competing light chain m37, L1:L2 DNA 1:3 normalized to 1:1, SPR tag read-out.

What is called Kd is the equilibrium constant for the complex coming apart. As to “H1L1 Fab heterodimer of LCCA set 9585 (D3H44 Fab; H: L143E_K145T; L: Q124R)”, in [1], the Kd is 0.28 nM and the change in KD vs wild type, -(log(KD design)-log(KD wt)) was -0.25.

As for “D3H44 Fab heterodimer, H1 Q39R_Q179K / L1 Q38E_Q124E_Q160E_T180E (H1L1 Fab of LCCA set 9827)”, the Change in median values of KD of h1l1 Fab heterodimer compared to wild type (-(log(KD design)-log(KD wt))) in [2] is -0.03. In addition, in test [3], the Kd is 0.17 nM.

For the substance “D3H44 Fab heavy chain A139G_V190A (Kabat), C-terminal ABD2-His6 tag”, the H1L1:H1L2 normalized median ratio in [4] is 32 of 100; in test [5] it was 28 of 100; in test [6] it was 72 of 100; in test [7] it was 68 of 100. Also, the results for the H1L1:H1L2 normalized median scalar value ln(r1/f1) in [4] and in test [6] were -0.77 and 0.94, respectively.

With “D3H44 Fab heavy chain A139W_S188L (Kabat), C-terminal ABD2-His6 tag”, the H2L2:H2L1 normalized median ratio in test [8] was 59 of 100; in test [9], 41 of 100; in test [4] it was 34 of 100; in test [5], 75 of 100; in test [10] it was 55 of 100; in test [11], 45 of 100. Also, the figures for the H2L2:H2L1 normalized median ratio in test [6] and in [7] were 25 of 100 and 66 of 100, respectively.

On to “D3H44 Fab heavy chain L143E_K145T_Q179D (Kabat), C-terminal ABD2-His6 tag”, for which the H1L1:H1L2 normalized median ratio is 16 of 100 in test [12], 12 of 100 in test [13], 88 of 100 in test [14] and 84 of 100 in [15]. Further, the H1L1:H1L2 normalized median scalar value ln(r1/f1) was determined as 1.97 in test [14] and 1.68 in test [15].

In the case of “D3H44 Fab heterodimer H1 L143D_K145T_Q179E / L1 T178R”, in [16], the Kd was 0.28 nM. Also, the Change in median values of KD of h1l1 Fab heterodimer compared to wild type (-(log(KD design)-log(KD wt))) in test [17] is -0.25.

With “D3H44 Fab heterodimer, H1L1 of LCCA Sets # 9705, 9706, 9704 and 9703 (H1 L143E_K145T_S188L; L1 Q124R)”, the Kd in [18] and in test [20] was 0.21 nM in each case. The change in median KD compared to wild type, -(log(KD design)-log(KD wt)) in test [19] and in test [21] was -0.12 throughout.

Consider “D3H44 H1L1 Fab heterodimer, H1 L124E_L143E_K145T, L1 Q124K_V133G_S176R_T178K”, for which the Change in median KD of h1l1 Fab heterodimer compared to wild type (-(log(KD design)-log(KD wt))) (log(KD) difference) in test [22] and in test [23] was -0.12 in each case. In test [24], the Kd is 0.21 nM.

Turning to “D3H44 Fab heterodimer H1 L143E_K145T_Q179D / L1 T178R”, the Kd in test [16] and in [25] was 0.11 nM each time. For the same substance, the Change in median values of KD of h1l1 Fab heterodimer compared to wild type (-(log(KD design)-log(KD wt))) in test [17] and in test [26] was 0.17 each time.

Turning to “D3H44 Fab heavy chain L143E_K145T (Kabat), C-terminal ABD2-His6 tag”, the H1L1:H1L2 normalized median ratio was 41 of 100 in test [27]; 28 of 100 in test [12]; 41 of 100 in test [28]; 59 of 100 in test [29]; 72 of 100 in test [15]; 59 of 100 in [30]. In addition, the H1L1:H1L2 normalized median scalar value ln(r1/f1) came out at 0.36 in test [29], 0.96 in test [15] and 0.38 in test [30].

As for “D3H44 Fab heavy chain Q179K (Kabat), C-terminal ABD2-His6 tag”, the H2L2:H2L1 normalized median ratio is 96 of 100 in test [27]; 87 of 100 in test [12]; 96 of 100 in [28]; 98 of 100 in test [31]; 4 of 100 in test [29]; 88 of 100 in test [13]. Moreover, the H2L2:H2L1 normalized median ratio in test [14] was 12 of 100; in test [15], 13 of 100; in [32], 12 of 100; in test [33], 88 of 100; in test [34], 2 of 100; in test [30], 4 of 100.

The record behind these values is patent publication US11306156.
